# According to paper PMC10315472 (2023):
# Molecular target: wild-type SARS-CoV-2 Spike receptor-binding domain (SARS-CoV-2, UniProt P0DTC2 319-527)
# Assay: SPR
binder,measurement,value
CPWNAYECDRHCVSKGYTGGNCRGKIRQTCHCY [(ΔGFG)AMSIN],koff,0.0223 s⁻¹
